{
  "source": "patent US20130071400A1",
  "about": "“LINGO binding molecules and Pharmaceutical Use Thereof” (NOVARTIS AG, priority 2006, published 2013)",
  "system": "postnatal day 7 rat cerebellar granule neurons (CGN)",
  "test": "Neurite outgrowth inhibition assay on spinal cord myelin",
  "assay_type": "cell-based",
  "settings": "sub-nM concentrations in vitro",
  "protocol": "A) P7 CGN cells are incubated for 16 hr on wells coated without spinal cord myelin (no SC, white bars) or wells coated with spinal cord myelin in the absence (SC, red bars) or presence of anti-LINGO-1 IgG4 antibodies, a control anti-lysozyme IgG4 antibody 3207 (green bars) or […] of the ROCK inhibitor Y27632 (yellow bar). […] The experiment is performed in three 96 well plates with an SC and no SC condition per plate to which the effects of the antibodies on that plate are compared and mean neurite length per neuron (μm) is calculated for 500 neurons per well in replicates of 10. The percentage inhibition (white text) is calculated as the percentile difference in mean neurite length/neuron between cells plated on wells coated with and without SC. The percentage disinhibition (black italic text) is calculated as the difference in mean neurite length between cells plated on SC in the presence and absence of anti-LINGO-1 antibody as a percentile of the difference between cells plated on wells coated with and without SC. *p<0.05, **p<0.01 (one way ANOVA, Holm-Sidak comparison to mean neurite length/neuron for cells plated on spinal cord myelin in the absence of antibody).\nA) P7 CGN cells are incubated for 8 hr on wells coated without spinal cord myelin (no SC, white bars) or wells coated with spinal cord myelin in the absence (SC, red bars) or presence of anti-LINGO-1 IgG4 antibodies or a control anti-lysozyme IgG4 antibody 3207. The experiment is performed in three 96 well plates with an SC and no SC condition per plate to which the effects of the antibodies on that plate are compared and mean neurite length per neuron (μm) is calculated for 500 neurons per well in replicates of 10. The percentage inhibition (white text) and disinhibition (black italic text) is calculated as above. **p<0.01 (one way ANOVA, Holm-Sidak comparison to mean neurite length/neuron for cells plated on spinal cord myelin in the absence of antibody).\nP7 CGN cells are incubated for 8 hr on wells coated without spinal cord myelin (no SC) or wells coated with spinal cord myelin in the absence (SC) or presence of the indicated concentrations of anti-LINGO-1 IgG4 antibodies 4784 or 4785, a control anti-lysozyme IgG4 antibody 3207 or 1 μM Y27632 (ROCK). The experiment is performed in three 96 well plates with an SC and no SC condition per plate to which the effects of the antibodies on that plate are compared and mean neurite length per neuron (μm) is calculated for 500 neurons per well in replicates of 10. The percentage inhibition (white text) and disinhibition (black italic text) is calculated as above. *p<0.05, **p<0.01 (one way ANOVA, Holm-Sidak comparison to mean neurite length/neuron for cells plated on spinal cord myelin in the absence of antibody). […]",
  "data": [
    {"molecule": "IgG4 4784: monoclonal human anti-LINGO-1 IgG4 antibody; VL SEQ ID NO: 4, VH SEQ ID NO: 5 (antibody, V domains shown, IgG4; 4784 VH; 4784 VL) VH: QVQLKESGPALVKPTQTLTLTCTFSGFSLSSSGVGVGWIRQPPGKALEWLAHIGSDDDKYYSTSLKTRLTISKDTSKNQVVLTMTNMDPVDTATYYCARNQQYGDGYPGYFDYWGQGTLVTVSS VL: DIELTQPPSVSVAPGQTARISCSGDNIGNYYVYWYQQKPGQAPVLVIYEDTNRPSGIPERFSGSNSGNTATLTISGTQAEDEADYYCQSYDNLHEQVFGGGTKLTVLG", "values": [
      {"measurement": "attenuation of the neurite outgrowth inhibitory activity of adult rat spinal cord myelin", "result": "significantly attenuate"}
    ]},
    {"molecule": "IgG4 4785: monoclonal human anti-LINGO-1 IgG4 antibody; VL SEQ ID NO: 6, VH SEQ ID NO: 7 (antibody, V domains shown, IgG4; 4785 VH; 4785 VL) VH: QVQLQQSGPGLVKPSQTLSLTCAISGDSVSDNSAAWSWIRQSPGRGLEWLGLIYLRSKWDNDYAVSVKSRITINPDTSKNQFSLQLNSVTPEDTAVYYCARTGRADEFDVWGQGTLVTVSS VL: DIVLTQPPSVSGAPGQRVTISCSGSSSNIGNNYVSWYQQLPGTAPKLLISRNSKRPSGVPDRFSGSKSGTSASLAITGLQSEDEADYYCSTYDTFSIVFGGGTKLTVLG", "values": [
      {"measurement": "attenuation of the neurite outgrowth inhibitory activity of adult rat spinal cord myelin", "result": "significantly attenuate"}
    ]}
  ]
}
